Experimental data from publication PMC4960319, “The anti-sigma factor RsrA responds to oxidative stress by reburying its hydrophobic core” (Nature Communications, 2016).
Several values for one entry are separate records, joined by “and”; a condition that tells them apart may be missing. Identical values can stand only once.

What was measured:
Conditions in all cases: both partners purified
σR (residues 5-227) = biological target: T1, σR (residues 5-227) (Streptomyces coelicolor, UniProt Q7AKG9 5-227); assay: ITC; with zinc (+), RsrA preincubated with 1 mM ZnCl2 and buffer exchanged; direct titration for weaker binding mutants (methods: 10 μM RsrA in the cell, 100 μM σR in the syringe); 35 °C, 50 mM Tris pH 7.5, 100 mM NaCl, 2 mM DTT; single binding site model
T1 construct: ECF sigma factor σR (SigR) of Streptomyces coelicolor; residues 5-227 subcloned into pET21a with a C-terminal stop codon for tagless expression; also called sigma factor σR; SigR; source: E. coli BL21(DE3), purified without tags (ammonium sulfate precipitation, Q-Sepharose, Hi-Load S75)

[1] = biological target: T2, σ^R (sigma factor SigR) from Streptomyces coelicolor, residues 5-227, tagless (Streptomyces coelicolor, UniProt Q7AKG9 5-227); assay: ITC; direct titration in the absence of zinc: RsrA^red (100 μM), σ^R (10 μM); 35 °C, 50 mM Tris pH 7.5, 100 mM NaCl, 2 mM DTT; single site model
T2 construct: ECF sigma factor σ^R (SigR) of Streptomyces coelicolor, residues 5-227 subcloned into pET21a (NdeI, BamHI) with a C-terminal stop codon; also called wild-type σ^R; source: E. coli BL21(DE3), pET21a, purified without tags (ammonium sulfate, Q-Sepharose, Hi-Load S75)

[2] = biological target: T2, σ^R (sigma factor SigR) from …; assay: stopped-flow tryptophan fluorescence; dissociation by competition, without zinc (apo-RsrA): 2.5 μM complex mixed with 25 μM σ^R Trp88Ile Trp119Ile (10-fold excess); 25 °C, 50 mM Tris pH 7.5, 100 mM NaCl
[3] = biological target: T2, σ^R (sigma factor SigR) from …; assay: stopped-flow tryptophan fluorescence; dissociation by competition, with zinc: 2.5 μM complex mixed with 25 μM σ^R Trp88Ile Trp119Ile (10-fold excess); 25 or 35 °C, 50 mM Tris pH 7.5, 100 mM NaCl
[4] = biological target: T2, σ^R (sigma factor SigR) from …; assay: ITC; competition ITC: RsrA^red.Zn^2+ (100 μM) titrated into σ^R (10 μM) with 50 μM weak-binding RsrA mutant in the cell; 35 °C, 50 mM Tris pH 7.5, 100 mM NaCl, 2 mM DTT; competitive binding model
σ^R Trp88Ile Trp119Ile = biological target: T3, σ^R Trp88Ile Trp119Ile (Streptomyces coelicolor, UniProt Q7AKG9 5-227, Trp88Ile | Trp119Ile); assay: stopped-flow tryptophan fluorescence; dissociation by competition, with zinc: 2.5 μM complex mixed with 25 μM σ^R Trp88Ile Trp119Ile (10-fold excess); 25 or 35 °C, 50 mM Tris pH 7.5, 100 mM NaCl
T3 construct: ECF sigma factor σ^R (SigR) of Streptomyces coelicolor; both tryptophans replaced; The limits 5-227 are those stated for the tagless wild-type construct; source: E. coli BL21(DE3), purified as wild-type σ^R ("All σ^R mutants were similarly purified")

[5] = biological target: T2, σ^R (sigma factor SigR) from …; assay: ITC; RsrA mutants (values in Supplementary Table 1); 35 °C, 50 mM Tris pH 7.5, 100 mM NaCl, 2 mM DTT; direct titration for weaker binding mutants (10 μM RsrA in the cell, 100 μM σ^R in the syringe); RsrA preincubated with ZnCl2 and buffer exchanged where zinc was included

B1: RsrA* C41S C44S (natural protein, Streptomyces coelicolor, UniProt Q7AKG8 1-105, looked up)
chain: MSAGEPHETDCSEILDHLYEFLDKEMPDSDAVKFEHHFEESSPSLEKYGLEQAVKKLVKRAAGQDDVPGDLRAKVMGRLDLIRSGQSVPEHDVAAAPSSSAPQES
notes: source: E. coli BL21(DE3) pLysS, purified by a His-tag that was removed by thrombin; not shown: His tag, N-terminal, cleaved
σR (residues 5-227)
  Kd: 297 nM

B2: RsrA (wild type), anti-sigma factor from Streptomyces coelicolor (natural protein, UniProt Q7AKG8 1-105, looked up)
chain: MSCGEPHETDCSEILDHLYEFLDKEMPDSDCVKFEHHFEECSPCLEKYGLEQAVKKLVKRCCGQDDVPGDLRAKVMGRLDLIRSGQSVPEHDVAAAPSSSAPQES
notes: Used reduced with one zinc ion at the ZAS motif (RsrA^red.Zn^2+) or reduced without zinc (EDTA-treated); the assay tells which; also called RsrA^red.Zn^2+; RsrA^red; source: E. coli BL21(DE3) pLysS, purified using a His-tag that was removed by thrombin cleavage; not shown: His-tag, N-terminal, cleaved
[1]
  Kd: 79.3 ± 4.2 nM
  dH: -16.26 ± 0.13 kcal/mol
  stoichiometry N: 0.97 ± 0.004
[2]
  fold increase of koff without zinc against with zinc: 400 fold
  koff: ~0.3 s⁻¹
[3]
  fold, kinetically derived Kd at 25 °C lower than at 35 °C: ~2 fold
[4]
  Kd: 0.78 nM and ~0.7 nM
  dH: -23.1 kcal/mol
  stoichiometry N: 1.01

B3: RsrA* (RsrA with Cys3, Cys31, Cys61 and Cys62 mutated to alanine) (natural protein, Streptomyces coelicolor, UniProt Q7AKG8 1-105, looked up)
chain: MSAGEPHETDCSEILDHLYEFLDKEMPDSDAVKFEHHFEECSPCLEKYGLEQAVKKLVKRAAGQDDVPGDLRAKVMGRLDLIRSGQSVPEHDVAAAPSSSAPQES
notes: the four non-essential cysteines mutated to alanine; also called RsrA*^red.Zn^2+; source: E. coli BL21(DE3) pLysS, purified using a His-tag that was removed by thrombin cleavage; not shown: His-tag, N-terminal, cleaved
σ^R Trp88Ile Trp119Ile
  binding result: binds
[3]
  koff: 0.0027 s⁻¹

B4: RsrA* Cys11His (natural protein, Streptomyces coelicolor, UniProt Q7AKG8 1-105, looked up)
chain: MSAGEPHETDHSEILDHLYEFLDKEMPDSDAVKFEHHFEECSPCLEKYGLEQAVKKLVKRAAGQDDVPGDLRAKVMGRLDLIRSGQSVPEHDVAAAPSSSAPQES
notes: The complex with σ^R analysed by native MS has a theoretical mass of 40,128.08 Da, which may mean that tags were present in that sample; also called RsrA*^red.Zn^2+ Cys11His; source: E. coli BL21(DE3) pLysS, purified using a His-tag that was removed by thrombin cleavage; not shown: His-tag, N-terminal, cleaved
σ^R Trp88Ile Trp119Ile
  binding result: binds
[3]
  koff: 0.064 s⁻¹

B5: RsrA* Cys11His Cys41His Cys44His (natural protein, Streptomyces coelicolor, UniProt Q7AKG8 1-105, looked up)
chain: MSAGEPHETDHSEILDHLYEFLDKEMPDSDAVKFEHHFEEHSPHLEKYGLEQAVKKLVKRAAGQDDVPGDLRAKVMGRLDLIRSGQSVPEHDVAAAPSSSAPQES
notes: Non-oxidative control; also called triple mutant; RsrA*^red.Zn^2+ Cys11His Cys41His Cys44His; source: E. coli BL21(DE3) pLysS, purified using a His-tag that was removed by thrombin cleavage; not shown: His-tag, N-terminal, cleaved
σ^R Trp88Ile Trp119Ile
  binding result: binds
[3]
  koff: ~2.3 s⁻¹

B6: RsrA* Cys11Ser Cys44Ser (natural protein, Streptomyces coelicolor, UniProt Q7AKG8 1-105, looked up)
chain: MSAGEPHETDSSEILDHLYEFLDKEMPDSDAVKFEHHFEECSPSLEKYGLEQAVKKLVKRAAGQDDVPGDLRAKVMGRLDLIRSGQSVPEHDVAAAPSSSAPQES
notes: source: E. coli BL21(DE3) pLysS, purified using a His-tag that was removed by thrombin cleavage; not shown: His-tag, N-terminal, cleaved
[5]
  Kd: 185 nM

B7: RsrA* Cys41His (natural protein, Streptomyces coelicolor, UniProt Q7AKG8 1-105, looked up)
chain: MSAGEPHETDCSEILDHLYEFLDKEMPDSDAVKFEHHFEEHSPCLEKYGLEQAVKKLVKRAAGQDDVPGDLRAKVMGRLDLIRSGQSVPEHDVAAAPSSSAPQES
notes: as for B6
[5]
  binding result: binds

B8: RsrA* Cys44His (natural protein, Streptomyces coelicolor, UniProt Q7AKG8 1-105, looked up)
chain: MSAGEPHETDCSEILDHLYEFLDKEMPDSDAVKFEHHFEECSPHLEKYGLEQAVKKLVKRAAGQDDVPGDLRAKVMGRLDLIRSGQSVPEHDVAAAPSSSAPQES
notes: as for B6
[5]
  binding result: binds
